# Where no end group is shown, it is not given here. The star is where a group is joined. Biotin = O=C1N[C@H]2[C@H](CS[C@H]2CCCCC(=O)*)N1
# T1: His-PHF20L1 tudor 1 (UniProt A8MW92 11-71)
# T1 construct: PHD-finger protein 20-like 1 (PHF20L1), tudor 1 domain; the GST construct of tudor 1 is 1-74; also called pET28a-PHF20L1 tudor 1; source: E. coli BL21 (DE3), purified
# T1 sequence (looked up): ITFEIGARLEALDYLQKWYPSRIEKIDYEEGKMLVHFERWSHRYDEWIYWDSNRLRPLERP
# B1: RbK810me1 peptide (biotin-GNIYISPLK[me]SPYKISEG) (peptide)
# peptide: Biotin-GNIYISPLK(Me)SPYKISEG
# notes: retinoblastoma protein (pRb), stretch around K810, K810 mono-methylated; also called mono-methylated K810 pRb peptide; biotinylated RbK810me1; source: synthetic peptide
# What was measured:
# His-PHF20L1 tudor 1 = molecular target: T1, His-PHF20L1 tudor 1; experiment: BLI; peptides immobilised; His-PHF20L1 tudor 1 or full-length His-PHF20L1 in seven 2.5-fold dilutions from 200 μM; 250 s association, 250 s dissociation; details: both partners purified
# [1] = molecular target: B1; experiment: as above; details: both partners purified
Kd (His-PHF20L1 tudor 1),Kd [1],Binder
28 µM,–,B1
–,34 µM,His-PHF20L1 (full length) (natural protein) MSKKPPNRPGITFEIGARLEALDYLQKWYPSRIEKIDYEEGKMLVHFERWSHRYDEWIYWDSNRLRPLERPALRKEGLKDEEDFFDFKAGEEVLARWTDCRYYPAKIEAINKEGTFTVQFYDGVIRCLKRMHIKAMPEDAKGQFLFQVKSQHPLSWCCPIDPAGSCNQSMGSEDWIALVKAAAAAAAKNKTGSKPRTSANSNKDKDKDERKWFKVPSKKEETSTCIATPDVEKKEDLPTSSETFVGLHVENVPKMVFPQPESTLSNKRKNNQGNSFQAKRARLNKITGLLASKAVGVDGAEKKEDYNETAPMLEQV

# Reference: publication PMC5686351, “Tudor-domain protein PHF20L1 reads lysine methylated retinoblastoma tumour suppressor protein” (Cell Death and Differentiation, 2017)
